This is an account of results in patent publication US20230272056A1 (Merck Sharp & Dohme, published 2023).

Test [1] has as its target T1, human LAP-TGFB3 Fc fusion (human).
T1 construct: also called human LAP-TGFβ3; LAP-TGFβ isoform 3
Description: SPR. An excerpt: (§1) This Example describes the isoform specificity of the yeast display mutants to bind to human LAP-TGFβ isoforms 1, 2, and 3 using surface plasmon resonance. A Series S CM4 sensor chip (GE Healthcare, catalog BR100534) was immobilized with an anti-human Fc capture antibody following the kit protocol (GE Healthcare, catalog BR100839) on a Biacore T200 instrument with 1× HBS-EP+ (Teknova, catalog H8022). […] Binding specificity experiments between human LAP-TGFβ isoforms 2 and 3 and yeast display mutants were performed in 1× HBS-EP+ with 0.1 mg/mL BSA at 25° C. Approximately 20-40 RU amounts of human LAP-TGFβ2 and 3 were captured to the anti-human Fc surface followed by injection of 1000 nM Fab including a negative control 0 nM Fab. The binding data were double referenced by subtraction of signal from a reference (capture surface only) flow cell and the negative control 0 nM Fab injection. Binding rate constants were determined by fitting the data with a 1:1 binding model (GE Healthcare Biacore T200 Evaluation software 3.0).

The target of test [2] is T2, human LAP-TGFB2 Fc fusion (human).
T2 construct: also called human LAP-TGFβ2; LAP-TGFβ isoform 2
T2 sequence (chain, as listed by the source limits assumed): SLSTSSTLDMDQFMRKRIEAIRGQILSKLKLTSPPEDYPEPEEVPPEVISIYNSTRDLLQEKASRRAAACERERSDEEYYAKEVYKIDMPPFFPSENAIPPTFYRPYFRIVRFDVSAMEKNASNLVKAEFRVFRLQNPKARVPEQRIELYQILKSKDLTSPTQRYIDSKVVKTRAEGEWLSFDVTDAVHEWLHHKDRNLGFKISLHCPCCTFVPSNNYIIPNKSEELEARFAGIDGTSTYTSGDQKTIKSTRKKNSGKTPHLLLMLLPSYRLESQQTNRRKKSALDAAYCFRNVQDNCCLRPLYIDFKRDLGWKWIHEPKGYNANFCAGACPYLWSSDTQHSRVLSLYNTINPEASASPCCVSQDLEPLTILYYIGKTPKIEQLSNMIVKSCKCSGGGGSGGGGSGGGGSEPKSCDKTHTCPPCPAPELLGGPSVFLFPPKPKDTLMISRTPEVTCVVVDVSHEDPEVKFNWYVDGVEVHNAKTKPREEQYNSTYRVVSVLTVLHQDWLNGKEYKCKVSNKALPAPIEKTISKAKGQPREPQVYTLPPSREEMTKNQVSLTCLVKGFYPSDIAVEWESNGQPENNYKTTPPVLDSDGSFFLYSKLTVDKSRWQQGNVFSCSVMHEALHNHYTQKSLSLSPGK
The test is described as follows: SPR.
Excerpt: as §1
(In general: In SPR one partner is held on a chip, and binding of the other changes the refractive index at the surface.)

The target of test [3] is T3, human LAP-TGFB1 Fc fusion (human).
T3 construct: also called human LAP-TGFβ1-Fc; human LAP-TGFβ-Fc isoform 1
T3 sequence (chain, as listed by the source limits assumed): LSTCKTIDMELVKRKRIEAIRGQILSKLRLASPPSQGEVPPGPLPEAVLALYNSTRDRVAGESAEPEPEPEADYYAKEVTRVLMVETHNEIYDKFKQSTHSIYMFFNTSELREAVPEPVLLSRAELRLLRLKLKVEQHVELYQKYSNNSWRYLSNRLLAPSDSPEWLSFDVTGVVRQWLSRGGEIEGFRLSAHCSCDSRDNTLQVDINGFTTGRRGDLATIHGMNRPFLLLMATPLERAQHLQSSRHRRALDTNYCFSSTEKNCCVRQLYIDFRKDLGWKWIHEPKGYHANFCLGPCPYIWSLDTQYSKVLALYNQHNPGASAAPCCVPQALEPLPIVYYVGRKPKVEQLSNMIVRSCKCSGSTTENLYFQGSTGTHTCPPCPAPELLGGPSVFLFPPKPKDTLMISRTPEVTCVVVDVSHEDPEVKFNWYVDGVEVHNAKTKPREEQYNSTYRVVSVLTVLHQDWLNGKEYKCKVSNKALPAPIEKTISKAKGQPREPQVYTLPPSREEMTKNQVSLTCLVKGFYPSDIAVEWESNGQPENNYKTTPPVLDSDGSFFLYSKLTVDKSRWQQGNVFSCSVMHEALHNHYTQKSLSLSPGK
The test is described as follows: SPR, antigen-Fc captured, Fab analyte.
Excerpt: as §1

In general, Kd refers to the constant that tells how readily two partners part at equilibrium. A high value points to weaker binding. In general, koff refers to the rate constant with which the complex falls apart. A lower koff goes with slow dissociation. In general, kon refers to a measure of how fast the partners come together. Read a high kon as fast association.

T1 sequence (chain, as listed by the source limits assumed): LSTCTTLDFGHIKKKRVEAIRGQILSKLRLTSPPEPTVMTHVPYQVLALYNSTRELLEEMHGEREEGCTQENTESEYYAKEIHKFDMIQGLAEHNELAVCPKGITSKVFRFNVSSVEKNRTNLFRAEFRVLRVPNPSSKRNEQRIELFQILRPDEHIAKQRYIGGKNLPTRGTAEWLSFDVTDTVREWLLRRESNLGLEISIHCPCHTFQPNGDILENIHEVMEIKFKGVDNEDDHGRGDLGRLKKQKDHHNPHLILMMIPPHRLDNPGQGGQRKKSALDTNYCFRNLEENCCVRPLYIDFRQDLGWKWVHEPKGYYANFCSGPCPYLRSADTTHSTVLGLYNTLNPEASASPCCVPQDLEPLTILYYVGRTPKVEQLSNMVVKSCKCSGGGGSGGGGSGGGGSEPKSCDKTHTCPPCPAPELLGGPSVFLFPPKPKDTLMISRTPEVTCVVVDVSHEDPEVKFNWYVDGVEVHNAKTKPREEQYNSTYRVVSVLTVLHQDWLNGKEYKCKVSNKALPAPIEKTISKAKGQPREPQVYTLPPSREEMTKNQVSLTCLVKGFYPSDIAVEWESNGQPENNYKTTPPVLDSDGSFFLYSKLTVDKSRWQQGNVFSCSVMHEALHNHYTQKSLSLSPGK

B1: 55BJN (Fab, V domains shown)
VH: EVQLVQSGAEVKKPGASVKVSCKASGYTFTSYDIHWVRQAPGQGLEWMGRIDPQSGGIKYAQKFQGRATLTVDTSTSTAYMELSRLRSDDTAVYYCARWDYGGYFDVWGQGTLVTVSS
VL: DIQMTQSPSSLSASVGDRVTITCRASQDITNYLNWYQQKPGKAVKLLIYYTSRLHSGVPSRFSGSGSGTDYTLTISSLQPEDFATYFCQQGDTLPWTFGQGTKLEIKR
notes: also called VH W33D M34I / VL (55BJN)
On to B1, for which the binding result in test [1] and in test [2] was “no binding (tested: 1000 nM Fab)” in each case. In addition, in test [3], the “Fold improvement in KD” value came to 3 fold.

B2: 59BJN (Fab, V domains shown)
VH: EVQLVQSGAEVKKPGASVKVSCKASGYTFTSYQVHWVRQAPGQGLEWMGRIDPQSGGIKYAQKFQGRATLTVDTSTSTAYMELSRLRSDDTAVYYCARWDYGGYFDVWGQGTLVTVSS
VL: DIQMTQSPSSLSASVGDRVTITCRASQDIYNYLNWYQQKPGKAVKLLIYYTSRLHSGVPSRFSGSGSGTDYTLTISSLQPEDFATYFCQQGDTLPWTFGQGTKLEIKR
notes: also called VH W33Q M34V / VL T30Y (59BJN)
For the molecule B2, the binding result in test [1] is given as “no binding (tested: 1000 nM Fab)”. The binding result in test [2] is “no binding (tested: 1000 nM Fab)”. In test [3], the “Fold improvement in KD” value stood at 7 fold, the Kd was found to be 11.7 nM, the koff stood at 0.0263 s⁻¹ and the kon turned out to be 2.24e+06 M⁻¹ s⁻¹.

B3: 61BJN (Fab, V domains shown)
VH: EVQLVQSGAEVKKPGASVKVSCKASGYTFTDYDMHWVRQAPGQGLEWMGRIDPQSGDHDYAQKFQGRATLTVDTSTSTAYMELSRLRSDDTAVYYCARYDHGGYFDVWGQGTLVTVSS
VL: DIQMTQSPSSLSASVGDRVTITCRASQDIYNYLNWYQQKPGKAVKLLIYYTSRLHSGVPSRFSGSGSGTDYTLTISSLQPEDFATYFCQQGDTLPWTFGQGTKLEIKR
notes: also called VH S31D W33D G57D I58H K59D W99Y Y101H / VL T30Y (61BJN)
Regarding B3, the binding result in test [1] is listed as “no binding (tested: 1000 nM Fab)”. Besides, the binding result in test [2] is reported as “no binding (tested: 1000 nM Fab)”. In test [3], the “Fold improvement in KD” value came to 1 fold, the Kd stood at 175 nM, the koff is 0.279 s⁻¹ and the kon was 1.59e+06 M⁻¹ s⁻¹.

B4: 57BJN (Fab, V domains shown)
VH: EVQLVQSGAEVKKPGASVKVSCKASGYTFTSYDMHWVRQAPGQGLEWMGRIDPQSGGIKYAQKFQGRATLTVDTSTSTAYMELSRLRSDDTAVYYCARWDYGGYFDVWGQGTLVTVSS
VL: DIQMTQSPSSLSASVGDRVTITCRASQDITNYLNWYQQKPGKAVKLLIYYTSRLHSGVPSRFSGSGSGTDYTLTISSLQPEDFATYFCQQGDTLPWTFGQGTKLEIKR
notes: also called VH W33D / VL (57BJN)
With B4, in test [1], the binding result is given as “no binding (tested: 1000 nM Fab)”. In addition, in test [2], the binding result was “no binding (tested: 1000 nM Fab)”. In test [3], the “Fold improvement in KD” value stood at 6 fold; the affinity, expressed as Kd, was 13.4 nM; the koff was 0.0178 s⁻¹; the kon amounted to 1.33e+06 M⁻¹ s⁻¹.

B5: 56BJN (Fab, V domains shown)
VH: EVQLVQSGAEVKKPGASVKVSCKASGYTFTSYDIHWVRQAPGQGLEWMGRIDPYSGGIKYAQKFQGRATLTVDTSTSTAYMELSRLRSDDTAVYYCARWDYGGYFDVWGQGTLVTVSS
VL: DIQMTQSPSSLSASVGDRVTITCRASQDITNYLNWYQQKPGKAVKLLIYYTSRLHSGVPSRFSGSGSGTDYTLTISSLQPEDFATYFCQQGDTLPWTFGQGTKLEIKR
notes: also called VH W33D M34I Q54Y / VL (56BJN)
Consider B5, for which the binding result in test [1] and in test [2] was “no binding (tested: 1000 nM Fab)” throughout. Also, the “Fold improvement in KD” value in test [3] was 1 fold.

B6: 58BJN (Fab, V domains shown)
VH: EVQLVQSGAEVKKPGASVKVSCKASGYTFTSYDMHWVRQAPGQGLEWMGRIDPQSGGIKYAQKFQGRATLTVDTSTSTAYMELSRLRSDDTAVYYCARYDHGGYFDVWGQGTLVTVSS
VL: DIQMTQSPSSLSASVGDRVTITCRASQDIYNYLNWYQQKPGKAVKLLIYYTSRLHSGVPSRFSGSGSGTDYTLTISSLQPEDFATYFCQQGDTLPWTFGQGTKLEIKR
notes: also called VH W33D W99Y Y101H / VL T30Y (58BJN)
For the molecule B6, the binding result in test [1] is given as “no binding (tested: 1000 nM Fab)”. For the same molecule, the binding result in test [2] is “no binding (tested: 1000 nM Fab)”. Also, in test [3], the “Fold improvement in KD” value was 13 fold, binding was put at a Kd of 6.42 nM, the koff stood at 0.0151 s⁻¹ and the kon was 2.35e+06 M⁻¹ s⁻¹.

B7: 63BJN (Fab, V domains shown)
VH: EVQLVQSGAEVKKPGASVKVSCKASGYTFTFYDIHWVRQAPGQGLEWMGRIDPQSGGIKYAQKFQGRATLTVDTSTSTAYMELSRLRSDDTAVYYCARWDYGGYFDVWGQGTLVTVSS
VL: DIQMTQSPSSLSASVGDRVTITCRASQDIYNYLNWYQQKPGKAVKLLIYYTSRLHSGVPSRFSGSGSGTDYTLTISSLQPEDFATYFCQQGDTLPWTFGQGTKLEIKR
notes: also called VH S31F W33D M34I / VL T30Y (63BJN)
For the molecule B7, in test [1], the binding result is reported as “no binding (tested: 1000 nM Fab)”. Also, in test [2], the binding result is on record as “no binding (tested: 1000 nM Fab)”. Further, in test [3], the “Fold improvement in KD” value amounted to 25 fold, binding was put at a Kd of 3.23 nM, the koff turned out to be 0.0053 s⁻¹ and the on-rate (kon) was 1.64e+06 M⁻¹ s⁻¹.

B8: 64BJN (Fab, V domains shown)
VH: EVQLVQSGAEVKKPGASVKVSCKASGYTFTTYWMHWVRQAPGQGLEWMGRIDPQSGGSKYAQKFQGRATLTVDTSTSTAYMELSRLRSDDTAVYYCARWDYGGYFDVWGQGTLVTVSS
VL: DIQMTQSPSSLSASVGDRVTITCRASQDIYNYLNWYQQKPGKAVKLLIYYTSHLHSGVPSRFSGSGSGTDYTLTISSLQPEDFATYFCQQGDTLPWTFGQGTKLEIKR
notes: also called VH S31T I58S / VL T30Y R53H (64BJN)
Regarding B8, in test [1], the binding result is “no binding (tested: 1000 nM Fab)”. For the same molecule, in test [2], the binding result was “no binding (tested: 1000 nM Fab)”. Also, in test [3], the “Fold improvement in KD” value amounted to 37 fold; the affinity, expressed as Kd, was 2.15 nM; the off-rate constant (koff) was found to be 0.0077 s⁻¹; the kon came out at 3.57e+06 M⁻¹ s⁻¹.

B9: 62BJN (Fab, V domains shown)
VH: EVQLVQSGAEVKKPGASVKVSCKASGYTFTSYDMHWVRQAPGQGLEWMGRIDPYGGGIKYAQKFQGRATLTVDTSTSTAYMELSRLRSDDTAVYYCARYDHGGYFDVWGQGTLVTVSS
VL: DIQMTQSPSSLSASVGDRVTITCRASQDIYNYLNWYQQKPGKAVKLLIYYTSRLHSGVPSRFSGSGSGTDYTLTISSLQPEDFATYFCQQGDTLPWTFGQGTKLEIKR
notes: also called VH W33D Q54Y S55G W99Y Y101H / VL T30Y (62BJN)
Turning to B9, the binding result in test [1] is “no binding (tested: 1000 nM Fab)”. In test [2], the binding result is “no binding (tested: 1000 nM Fab)”. Moreover, in test [3], the “Fold improvement in KD” value is 5 fold, the Kd was found to be 15.6 nM, the koff was 0.032 s⁻¹ and the kon came to 2.05e+06 M⁻¹ s⁻¹.

B10: 60BJN (Fab, V domains shown)
VH: EVQLVQSGAEVKKPGASVKVSCKASGYTFTSYDMHWVRQAPGQGLEWMGRIDPQSGGEKYAQKFQGRATLTVDTSTSTAYMELSRLRSDDTAVYYCARYDYGGYFDVWGQGTLVTVSS
VL: DIQMTQSPSSLSASVGDRVTITCRASQDIYNYLNWYQQKPGKAVKLLIYYTSRLHSGVPSRFSGSGSGTDYTLTISSLQPEDFATYFCQQGDTLPWTFGQGTKLEIKR
notes: also called VH W33D I58E W99Y / VL T30Y (60BJN)
For B10, the binding result in test [1] is recorded as “no binding (tested: 1000 nM Fab)”. The binding result in test [2] is on record as “no binding (tested: 1000 nM Fab)”. Besides, in test [3], the “Fold improvement in KD” value turned out to be 31 fold, the equilibrium dissociation constant (Kd) is 2.57 nM, the off-rate (koff) came out at 0.00653 s⁻¹ and the kon amounted to 2.54e+06 M⁻¹ s⁻¹.
